Laboratory results from US20200147199A1 (published 2020).
Changes are numbered by the printed parent chain.

B1: Z021 (MEX84_p4-23) (antibody, V domains shown)
VH: QVQLQESGPGLVKPSETLSLTCTVSGGSIDTYYWSWIRQTPGKGLEWIGCFYYSVDNHFNPSLESRVTISVDTSKNQFSLKMTSMTASDTAVYYCARNQPGGRAFDYWGPGTLVTVSS
VL: EIVLTQSPATLSLSPGQRATLSCRASQSVSNYFAWYQQKPGQAPRLLIYDTSKRATGTPARFSGSGSGTDFTLTISSLEPEDFAVYYCQERNNWPLTWTFGLGTKVEIK
B2: Z006 (MEX105_42) (antibody, V domains shown)
VH: EVQLLESGGGLVQPGGSLRLSCAASGFTFKNYAMAWVRQAPGKGLEWVSLLYNSEESTYYADSVKGRFTISRDNSKNTLFLQMNRLRVEDTAVYFCVRDRSNGWSSINLWGRGTLVTVSS
VL: DIQMTQSPSTLSASVGDRVTMTCRASQTISGWLAWYQQKPGKAPKLLIYQASRLESGIPSRFSGSGSGTEFTLTISSLQPDDVATYYCQQYSTFWTFGLGTKVEIK
B3: Z010 (MEX105_88) (antibody, V domains shown)
VH: EVQLLESGGGLVQPGGSLRLSCAASGFTFSNYAMAWVRQAPGKGLEWVSLIYSGDDSTYYADFVKGRFTISRHNSKNTLSLQMNSLRAEDTAIYYCVKDRGTGWSSIVHWGQGTLVTVSS
VL: B2 VL with M21I, G31N, R53S, I58V, V83F, F94Y, L99Q
B4: Z012 (antibody, V domains shown)
VH: QVQLVQSGAEVKKSGASVKVSCKASGYSFTTNYIHWVRQAPGQGPEWMGIINPRGGSTTYAQKFQGRVLMTSDTSTSTVYMELSSLRSEDRAVYYCARGKNHQTTVAVLSWYYGMDVWGQGTTVTVSS
VL: DIQMTQSPSSVSASVGDRVTITCRASQGISSWLAWYQQKPGKAPKLLISAASSLQSGVPSRFSGSGSGTDFTLTISNLQPEDFATYFCQQANSFPYTFGQGTKLEIK
B5: Z043 (antibody, V domains shown)
VH: QVQLVQSGAEVKKPGASVKVSCKTSGYTFTSYYMNWVRQAPGQGLEWMGIIKPSDGSTNYAQKFQGRVTMTRDTSTSTVYMELRSLRSEDTAVYYCGRDSKGWLQLRGDIDYWGQGTLVTVSS
VL: QSALTQPASVSGSPGQSITISCAGTSSDVGNYNLVSWYQQHPGKAPKLLIYEVSKRPSGVSNRFSGSKSGNTASLTISGLQAEDEADYYCCSYAGSSTYVFGTGTEVTVL
B6: Z041 (antibody, V domains shown)
VH: QVQLVQSGAEVKKPGSSVRLSCKASGGSYSTYAISWVRQAPGQGLEWMGRIIPSLGKTHLAQKFQGRVTFTADESTTTVYMILSSLKSEDTALYYCATPDWQYSSAYSLDHWGQGTLVTVSS
VL: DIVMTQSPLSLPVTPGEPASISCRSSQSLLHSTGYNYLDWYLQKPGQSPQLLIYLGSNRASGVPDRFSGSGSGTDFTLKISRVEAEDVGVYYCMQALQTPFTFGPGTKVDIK
B7: Z039 (antibody, V domains shown)
VH: EVQLLESGGGLVQPGGSLRLSCAASGYIFDNYAMSWVRQAPGKGLEWVSYINGGGYGTDYADSVKGRFTISRDNSKRILYLQMNSLRVGDTAVYYCAKSPYVGGYGLPGDSWGQGTLVTVSS
VL: EIVLTQSPGTLSLSPGERATLSCRASQTIFFNYLAWYQKKPGQAPRLLVHGASTRATGIPDRFSGSGSGTDFTLTINSLDPEDFAVYYCQQYGDSPPTFGGGTKVEIK
B8: Z024 (antibody, V domains shown)
VH: EVQLVQSGAEVRKPGESLRISCKTSGYTFTSHWVAWVRQMPGKGLEWMGIIYPGDSDTRYSPSFQGQISISADKSINTAYLQWSSLKASDTGIYYCARHDGRGYCSPTRCFFSGMDVWGQGTTVTVSS
VL: DIQLTQSPSSLSASVGDRVTITCRASQSISNYLNWYQQKPGKAPNLLIYAASSLQSGVPSRFSGSGSGTDFTLTISSLQPEDYAIYYCQQTDRTPLTFGQGTKVEIK
B9: Z042 (antibody, V domains shown)
VH: QVQLQESGPGLVKPSETLSLSCTVSSGSISNYYWNWIRQPPGKGLEWIGYIYYSGSISYNPSLKSRVTISVDTSKNQLSLKLNSVTAADTAVYYCARGPDNRYWGQGTLVTVSS
VL: EIVMTQSPATLSVSPGERVTLSCRASQSVSYNLAWHQQKPGQAPRLLIYGASTRATGIPARFSGSGSGTEFTLTISNMQSEDFAVYYCQQYNNWPPVFTFGPGTKVDIK
B10: Z037 (antibody, V domains shown)
VH: QVQLQESGPGLVKPSETLSLTCSVSGYFISSGHYWGWIRQSPGKGLEWIASIYQSGSKFQTGNTYYNPSLESRVTISMDTSKNQFSLKLSSVTAADTAVYFCARDARSRSWDRTGFFGPWGQGILVTVSS
VL: EIVLTQSPGTLSLSPGERATLSCRASQSLSSSFLAWYQQKPGQSPRLLIYGTSSRDTGIPDRFSGSGSGTDFTLTISRLEPEDSAVYYCQQYGSSWGTFGQGTKLEIK
B11: Z031 (BRA112_46) (antibody, V domains shown)
VH: EVQLLESGGGLVQPGGSLRLSCVASGFTFGSYGMAWVRQAPGKGLEWISSISSIDPSTYYADSVKGRFTVSRDNSENTLYLHMSSLKVEDTAVYFCAKDRLNGGFGELFASWGQGTLVTVSS
VL: DIQMTQSPSTLSASVGDSVTITCRASQSISSWLAWYQQKPGKAPKFLIHKASSLESGIPSRFSGSGSGTEFTLTINNLQPDDFATYYCQHYHSYPWTFGQGTKVEIK
B12: Z035 (BRA112_71) (antibody, V domains shown)
VH: EVQLLESGGGLIQPGGSLRLSCAASGFTFSSYAMSWVRQAPGKGLEWVSGISGSGGASDNGASRYYADSVKGRFSISRDNSKNTVYLQMNSLRAEDTAVYYCAKDRLSGGFGELFQKWGQGTLVTVSS
VL: DIQMTQSPSTLAASVGDRVTITCRASQNINSWLAWYQQKPGKAPKFLIYKASTLESGAPSRFSGSGSGTEFTLTISSLQPDDFATYYCQHYYSYPYTFGQGTKVEIK
B13: Z004 (MEX18_89) (antibody, V domains shown)
VH: EVQLLESGGGLVQPGGSLRLTCATSGFTFRDYAMSWVRQAPGKGLEWVSSYSGIDDSTYYADSVKGRFTISRDNSKSTLSLHMNSLRAEDSALYFCAKDRGPRGVGELFDSWGQGTLVTVSS
VL: DIQMTQSPSTLSASVGDRVTITCRASQSISKWLAWYQQKPGKAPKLLIYTTSTLKSGVPSRFSGSGSGTEFTLTISSLQPDDFATYYCQHFYSVPWTFGQGTKVEIK
B14: Z028 (MEX84_p4-53) (antibody, V domains shown)
VH: EVQLLESGGGLVQPGGSLRLSCAASGFTFSAYAMSWVRQAPGKGLEWVSSINGHSDSTYFADSVKGRFTISRDNSKNTLYLQMNSLRAEDTALYYCAKDRLREGIGELFHSWGQGTLVTVSS
VL: B13 VL with V15I, S30T, K31P, L46F, T50Q, T53I, K55E, F91Y, Y92H, V94Y
B15: Z001 (MEX18_21) (antibody, V domains shown)
VH: EVQLLESGGGLVQPGGSRRLSCATSGFSFDTYAMSWLRQAPGKGLEWVSSFSGLDDSTYYADSVKGRFTISRDNSKNTLYLQMNSLRAEDTAIYYCAKDRGPRGIGELFDFWGQGTLVTVSS
VL: B13 VL with K31R, T50K, G57E, Y92H
B16: Z038 (BRA12_2) (antibody, V domains shown)
VH: EVQLLESGGGLVQPGGSLRLSCEASGFTFSNYAMNWVRQAPGKGLEWVSTLGATDNSGDSTYYVESAKGRFTISRDNSKNTLYLQMNSLRVEDTAVYFCAKDRTGNIGAGTGYFDKWGQGTLVTVSS
VL: DIQMTQSPSTLSASVGDRVTITCRASHRISGWLAWYQQKPGKAPKLLIYQASGLESGVPSRFSGSGYGTEFTLTISSLQADDFATYYCQQYNNYPWTFGQGTKVEIK
B17: Z014 (antibody, V domains shown)
VH: EVQLLESGGDLVQPGGSLRLSCAASGFTFSSYGMSWVRQAPGKGLEWVSSISGFDPSTYYADSVRGRFTIARDNSKNTLYLQMKSLRVEDTAIYYCAKDRLVRGFGEVLDSWGQGTLVTVSS
VL: DIQMTQSPSSLSASVGDRVTITCRASQGISNYLAWYQQKPREVPKLLIYAASTLHSGVPSRFSGSGSGTDFTLTISGLQPEDVATYYCQKYNSVPWTFGQGTKVEIK
B18: Z018 (antibody, V domains shown)
VH: QVQLVQSGPGVKKPGASVKVSCKASGYIFSDYYILWVRQAPGQGLEYMGWMNPISGFTHYAQNFQGRVTMTRDTSISTAYMELTRLASDDTAVYYCARGGRINSPLGFDPWGQGTLVTVSS
VL: EIVLTQSPATLSLSPGERATLSCRASQSISTFSLAWYQQKFGQAPRLLIYGASSRATGIPDRFSGSGSGTDFTLTISRLEPEDFAVYYCQQYVSSPLTFGGGTKVEIK

Molecular target: ZIKV E Domain III (ZEDIII), polyhistidine-AviTag, produced in HEK-293-6E cells
Assay: ELISA

Binder | EC50 [µg/mL]
B1 | 0.0554
B2 | 0.0351
B3 | > 0.4
B4 | 0.2
B5 | 0.188
B6 | 0.218
B7 | 0.0885
B8 | > 4
B9 | 0.0586
B10 | > 0.4
B11 | 0.0341
B12 | 0.0284
B13 | 0.0237
B14 | 0.0371
B15 | 0.0206
B16 | 0.0581
B17 | 0.106
B18 | 0.0742
